Experimental data: publication PMC9888386 (The Journal of Clinical Investigation, 2023)

Target: T1, KEAP1 (microscale thermophoresis assay) (UniProt Q14145 1-624)
T1 construct: KEAP1 as used in the microscale thermophoresis assay; May be the same as GST-KEAP1-WT
Test: MST; microscale thermophoresis; conditions in the Supplemental Methods, not shown

T1 sequence (Q14145 whole entry): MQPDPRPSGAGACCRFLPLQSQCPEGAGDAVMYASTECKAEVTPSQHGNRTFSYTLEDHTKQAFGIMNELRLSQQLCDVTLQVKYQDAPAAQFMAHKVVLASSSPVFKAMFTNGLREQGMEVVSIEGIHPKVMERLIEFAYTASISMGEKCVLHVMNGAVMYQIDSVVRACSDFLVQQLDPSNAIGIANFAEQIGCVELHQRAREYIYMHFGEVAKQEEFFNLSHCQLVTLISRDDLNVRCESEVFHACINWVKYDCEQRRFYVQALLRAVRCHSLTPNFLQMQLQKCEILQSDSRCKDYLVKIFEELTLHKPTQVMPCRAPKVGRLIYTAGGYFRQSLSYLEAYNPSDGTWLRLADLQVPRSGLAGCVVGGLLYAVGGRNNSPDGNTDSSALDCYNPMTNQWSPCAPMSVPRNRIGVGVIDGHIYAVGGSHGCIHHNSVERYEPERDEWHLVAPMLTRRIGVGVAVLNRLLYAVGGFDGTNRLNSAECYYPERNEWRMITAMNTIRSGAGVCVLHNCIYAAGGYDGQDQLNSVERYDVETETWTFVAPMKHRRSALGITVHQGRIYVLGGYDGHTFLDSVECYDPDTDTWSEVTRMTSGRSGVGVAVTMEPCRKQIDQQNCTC

B1: truncated NRF2 (NRF2^ΔDLG) (natural protein)
chain: MMDLELPPPGLPSQQDMDLIDILWRQDIVSREVFDFSQRRKEYELEKQKKLEKERQEQLQKEQEKAFFAQLQLDEETGEFLPIQPAQHIQSETSGSANYSQVAHIPKSDALYFDDCMQLLAQTFPFVDDNEVSSATFQSLVPDIPGHIESPVFIATNQAQSPETSVAQVAPVDLDGMQQDIEQVWEELLSIPELQCLNIENDKLVETTMVPSPEAKLTEVDNYHFYSSIPSMEKEVGNCSPHFLNAFEDSFSSILSTEDPNQLTVNSLNSDATVNTDFGDEFYSAFIAEPSISNSMPSPATLSHSLSELLNGPIDVSDLSLCKAFNQNHPESTAEFNDSDSGISLNTSPSVASPEHSVESSSYGDTLLGLSDSEVEELDSAPGSVKQNGPKTPVHSSGDMVQPLSPSQGQSTHVHDAQCENTPEKELPVSPGHRKTPFTKDKHSSRLEAHLTRDELRAKALHIPFPVEKIINLPVVDFNEMMSKEQFNEAQLALIRDIRRRGKNKVAAQNCRKRKLENIVELEQDLDHLKDEKEKLLKEKGENDKSLHLLKKQLSTLYLEVFSMLRDEDGKPYSPSEYSLQQTRDGNVFLVPKSKKPDVKKN
With B1 the Kd was 5.28 µM.
